The source of these data is patent US20050009119A1.

pKd: −log10 of the molar value.

By pKd is commonly meant −log10 of the Kd, conventionally taken in molar units.

The experiment concerns the target human nucleophosmin (NPM; B23) (human) (UniProt P06748). The experiment is described as follows: Scatchard analysis, increasing amounts of 125I-labelled antibody on intact cells (cell line not stated).
UniProt P06748, sequence (P06748 whole entry): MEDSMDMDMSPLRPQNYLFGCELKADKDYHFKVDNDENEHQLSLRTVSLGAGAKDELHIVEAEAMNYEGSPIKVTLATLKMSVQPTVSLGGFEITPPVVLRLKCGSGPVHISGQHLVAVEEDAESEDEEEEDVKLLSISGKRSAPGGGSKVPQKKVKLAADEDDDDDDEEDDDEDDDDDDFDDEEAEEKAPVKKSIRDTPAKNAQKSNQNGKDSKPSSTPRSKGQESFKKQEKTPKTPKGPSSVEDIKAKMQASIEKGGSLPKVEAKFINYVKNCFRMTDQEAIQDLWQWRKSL

The substance “mouse monoclonal anti-nucleophosmin antibody (Zymed Laboratories, catalog no. 32-5200)” had a pKd of 8.09.
